For the assay, the target named is human cystathionine beta-synthase regulatory domain alone with the loop deletion (CBS^RDΔ516–525) (human) (UniProt P35520). The assay is described as follows: SEC + native gel or EMSA; control constructs in analytical Superose 6 gel filtration and clear-native and blue-native PAGE (Supplementary Fig. 2); self-association.

“human cystathionine beta-synthase regulatory domain alone with the loop deletion (CBS^RDΔ516–525) (from UniProt P35520 406-515) (domain or fragment)”: the stoichiometry N came out at 2.

Usually stoichiometry N stands for a count of units in the complex or per binding partner.

The record behind these values is PMC10995199, “Architecture and regulation of filamentous human cystathionine beta-synthase” (Nature Communications, 2024).
